In patent US7348140B1, “Clinical indications for genotyping polymorphic variants of G-protein coupled receptors” (Acadia Pharmaceuticals, Inc., priority 2001, dated 2008):

Legend:
[1] = molecular target: Cholecystokinin B receptor L224Q variant (Glutamine 224) (UniProt P32239); test: cell-based or functional assay
[2] = molecular target: Cholecystokinin B receptor, wild type (Leucine 224) (UniProt P32239); test: cell-based or functional assay
Sequence of Cholecystokinin B receptor, wild type (Leucine 224) (P32239 whole entry): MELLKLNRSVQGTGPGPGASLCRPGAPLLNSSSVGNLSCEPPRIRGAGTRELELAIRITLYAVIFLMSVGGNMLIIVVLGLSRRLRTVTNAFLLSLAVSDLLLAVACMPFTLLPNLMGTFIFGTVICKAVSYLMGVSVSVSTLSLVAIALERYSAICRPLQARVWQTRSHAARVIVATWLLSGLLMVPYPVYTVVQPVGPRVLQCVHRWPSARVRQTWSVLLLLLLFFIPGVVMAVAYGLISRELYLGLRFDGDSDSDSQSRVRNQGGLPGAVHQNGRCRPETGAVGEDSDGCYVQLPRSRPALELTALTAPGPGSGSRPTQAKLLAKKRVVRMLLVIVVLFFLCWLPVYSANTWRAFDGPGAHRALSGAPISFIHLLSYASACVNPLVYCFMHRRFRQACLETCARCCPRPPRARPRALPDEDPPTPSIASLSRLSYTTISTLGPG

Sequence of Cholecystokinin B receptor L224Q variant (Glutamine 224) (P32239 whole entry L224Q): as the sequence (P32239 whole entry) above, with L224Q counted along it

## Gastrin (from UniProt P01350 76-92) (peptide)
[1]
  Ave -Log EC50, R-SAT functional potency: 9.78 -log EC50
  FOLD (shift in functional potency against wild type; negative = gain of function): -11.7 fold
[2]
  Ave -Log EC50, R-SAT functional potency: 8.71 -log EC50
